T1: human FcγRIIb (human, UniProt P31994 43-217, limits assumed)
T1 construct: also called FcgRIIb; FcγIIB
T1 sequence: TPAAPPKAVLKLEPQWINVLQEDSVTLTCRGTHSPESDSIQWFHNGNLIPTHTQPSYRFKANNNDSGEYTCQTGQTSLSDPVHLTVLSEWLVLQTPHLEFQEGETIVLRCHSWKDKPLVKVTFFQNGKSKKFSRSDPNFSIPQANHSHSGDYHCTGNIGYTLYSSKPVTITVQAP

T2: human FcγRIIa(H) (human, UniProt P12318 36-217)
T2 construct: also called FcgRIIaH; FcγRIIa type H
T2 sequence: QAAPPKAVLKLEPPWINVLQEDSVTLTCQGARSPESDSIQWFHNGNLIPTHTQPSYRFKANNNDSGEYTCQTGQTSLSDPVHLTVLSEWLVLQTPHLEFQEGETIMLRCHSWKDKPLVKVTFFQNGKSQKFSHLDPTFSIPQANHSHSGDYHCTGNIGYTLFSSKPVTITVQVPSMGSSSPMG

T3: human FcγRIIa type R (human, UniProt P12318 36-217)
T3 construct: also called FcγRIIaR; FcγRIIa(R)
T3 chain: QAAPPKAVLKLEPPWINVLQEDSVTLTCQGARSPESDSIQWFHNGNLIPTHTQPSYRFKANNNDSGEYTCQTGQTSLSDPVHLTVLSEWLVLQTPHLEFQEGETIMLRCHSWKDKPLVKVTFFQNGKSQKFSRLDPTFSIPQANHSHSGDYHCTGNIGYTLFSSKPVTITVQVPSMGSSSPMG

T4: human FcγRIIb (human, UniProt P31994 43-217, limits assumed)
T4 construct: Whole entry (AAI46679.1); also called FcγIIB; FcgRIIb
T4 sequence: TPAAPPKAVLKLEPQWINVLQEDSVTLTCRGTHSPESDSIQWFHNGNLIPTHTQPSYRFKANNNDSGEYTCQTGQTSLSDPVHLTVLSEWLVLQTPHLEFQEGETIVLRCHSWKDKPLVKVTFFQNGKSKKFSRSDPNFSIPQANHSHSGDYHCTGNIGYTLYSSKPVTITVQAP


Experiments:
human FcγRIIb [1] = target: T1, human FcγRIIb; assay: SPR, antibody captured, FcγR as analyte, capture-corrected binding amount
Method: (§1) Interaction between each modified antibody and Fcγ receptor prepared in the manner described above was analyzed using the BIACORE™ T100 surface plasmon resonance system (GE Healthcare), BIACORE™ T200 surface plasmon resonance system (GE Healthcare), BIACORE™ A100 surface plasmon resonance system or BIACORE™ 4000 surface plasmon resonance system. HBS-EP+(GE Healthcare) was used for the running buffer, and measurements were carried out at 25° C. The chips used were chips in which antigen peptides, Protein A (Thermo Scientific), Protein A/G (Thermo Scientific) or Protein L (ACTIGEN® protein (Alltech or BioVision) were immobilized on the Series S Sensor Chip CM5 (GE Healthcare) or Series S Sensor Chip CM4 (GE Healthcare) by amine coupling, or chips in which preliminarily biotinylated antigen peptides were allowed to interact and then immobilized on the Series S Sensor Chip SA (certified) (GE Healthcare). The target antibodies were captured on these sensor chips, Fcγ receptor diluted with the running buffer was allowed to interact, followed by measurement of the amount of bound antibody. The amounts bound were compared between antibodies. However, since the amount of Fcγ receptor bound depends on the amount of captured antibody, the values used for comparison were first corrected by dividing the amount of Fcγ receptor bound by the captured amount of each antibody. Through reaction with 10 mM glycine-HCl at pH 1.5, the sensor chips were regenerated by washing off antibody captured on the sensor chips and used repeatedly.
(§2) Binding strength was evaluated according to the following method based on the results of analyzing the interaction with each FcγR. […] That value was then further multiplied by 100, and the resulting value was used as an indicator of relative binding activity to each FcγR.

human FcγRIIIa(F) = target: T5, human FcγRIIIa(F) (human, UniProt P08637 17-208, limits assumed); assay: as above
T5 construct: the assay used allotype F; also called FcgRIIIaF; FcγRIIIa allotype F158
Method: as §1, §2

human FcγRIIa(H) = target: T2, human FcγRIIa(H); assay: as above
Method: as §1, §2

human FcγRIIa type R = target: T3, human FcγRIIa type R; assay: SPR (Biacore), antibody captured, FcγR as analyte, method of Example 14
Method: (§3) Next, interaction between these antibodies and FcγR was analyzed kinetically using the BIACORE™ T100 (GE Healthcare). The interaction was measured at a temperature of 25° C. using HBS-EP+ (GE Healthcare) for the running buffer. The Series S Sensor Chip CM5 (GE Healthcare) was used after immobilizing Protein A by amine coupling. […] Antibody captured on the chip was washed by allowing 10 mM glycine-HCl (pH 1.5) to react following measurement. The chip regenerated in this manner was used repeatedly. The dissociation constant KD (mol/L) was calculated from the association rate constant ka (L/mol/s) and dissociation rate constant kd (1/s) as calculated by global-fitting the measurement results with a 1:1 Langmuir binding model using the BIACORE™ Evaluation Software.
Furthermore, KD(IIaR)/KD(IIb) and KD(IIaH)/KD(IIb) in the table respectively show the value obtained by dividing the KD value of each variant for FcγRIIaR by the KD value of each variant for FcγRIIb, and the value obtained by dividing the KD value of each variant for FcγRIIaH by the KD value of each variant for FcγRIIb.

human FcγRIIb [2] = target: T4, human FcγRIIb; assay: ratio of SPR KD values: KD for FcγRIIaH divided by KD for FcγRIIb
Method: as §3
Furthermore, KD(IIaR)/KD(IIb) and KD(IIaH)/KD(IIb) in the table respectively represent the value obtained by dividing the KD value of each variant for FcγRIIaR by the KD value of each variant for FcγRIIb, and the value obtained by dividing the KD value of each variant for FcγRIIaH by the KD value of each variant for FcγRIIb.

T5 sequence (P08637 other isoform, or with tags, fused parts or gaps limits assumed): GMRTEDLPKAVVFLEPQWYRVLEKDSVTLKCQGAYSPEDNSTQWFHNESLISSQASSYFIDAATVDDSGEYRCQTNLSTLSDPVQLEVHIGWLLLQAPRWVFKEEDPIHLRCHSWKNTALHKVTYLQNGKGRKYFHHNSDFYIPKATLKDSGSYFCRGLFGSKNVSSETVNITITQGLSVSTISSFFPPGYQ

Binder	relative binding activity (human FcγRIIb [1])	relative binding activity (human FcγRIIIa(F))	KD(IIaH)/KD(IIb) (human FcγRIIb [2])	also measured
GpH7-B3 L328R/GpL16-k0 (antibody, human IgG1, Anti-glypican-3 human IgG1 with B3 constant region (G1d with K439E); also called B3 variant; copies: 2 + 2) heavy: not shown light: DIVMTQSPLSLPVTPGEPASISCQASESLVHSNRNTYLHWYLQKPGQSPQLLIYKVSNRFSGVPDRFSGSGSGTDFTLKISRVEAEDVGVYYCSQNTHVPPTFGQGTKVEIE	3 % of GpH7-B3/GpL16-k0	1 % of GpH7-B3/GpL16-k0	–	–
GpH7-B3 N325Y/GpL16-k0 (antibody, human IgG1, Anti-glypican-3 human IgG1 with B3 constant region (G1d with K439E); also called B3 variant; copies: 2 + 2) heavy: not shown light: DIVMTQSPLSLPVTPGEPASISCQASESLVHSNRNTYLHWYLQKPGQSPQLLIYKVSNRFSGVPDRFSGSGSGTDFTLKISRVEAEDVGVYYCSQNTHVPPTFGQGTKVEIE	–	–	–	relative binding activity (human FcγRIIa(H)): -9 % of GpH7-B3/GpL16-k0
GpH7-B3 P329Q/GpL16-k0 (antibody, human IgG1, Anti-glypican-3 human IgG1 with B3 constant region (G1d with K439E); also called B3 variant; copies: 2 + 2) heavy: not shown light: DIVMTQSPLSLPVTPGEPASISCQASESLVHSNRNTYLHWYLQKPGQSPQLLIYKVSNRFSGVPDRFSGSGSGTDFTLKISRVEAEDVGVYYCSQNTHVPPTFGQGTKVEIE	2 % of GpH7-B3/GpL16-k0	1 % of GpH7-B3/GpL16-k0	–	–
IL6R-PD082/IL6R-L (antibody, human IgG1, Alteration is counted against IL6R-F11; also called G237F/P238D; P238D/G237F) heavy: QVQLQESGPGLVKPSETLSLTCAVSGHSISHDHAWSWVRQPPGEGLEWIGFISYSGITNYNPSLQGRVTISRDNSKNTLYLQMNSLRAEDTAVYYCARSLARTTAMDYWGEGTLVTVSSASTKGPSVFPLAPSSKSTSGGTAALGCLVKDYFPEPVTVSWNSGALTSGVHTFPAVLQSSGLYSLSSVVTVPSSSLGTQTYICNVNHKPSNTKVDKKVEPKSCDKTHTCPPCPAPELLGFDSVFLFPPKPKDTLYISRTPEVTCVVVDVSHEDPEVKFNWYVDGVEVHNAKTKPREEQYNSTYRVVSVLTVLHQDWLNGKEYKCKVSNKALPAPIEKTISKAKGQPREPQVYTLPPSRDELTKNQVSLTCLVKGFYPSDIAVEWESNGQPENNYKTTPPVLDSDGSFFLYSKLTVDKSRWQQGNVFSCSVMHEALHYHYTQKSLSLSP light: DIQMTQSPSSLSASVGDRVTITCRASQDISSYLNWYQQKPGKAPKLLIYYTSRLHSGVPSRFSGSGSGTDFTFTISSLQPEDIATYYCQQGNTLPYTFGQGTKVEIK	–	–	–	Kd (human FcγRIIa type R): 1400 nM
IL6R-BP143/IL6R-L (antibody, human IgG1, name in EU numbering, Alterations introduced into IL6R-B3 (EU numbering)) heavy: QVQLQESGPGLVKPSETLSLTCAVSGHSISHDHAWSWVRQPPGEGLEWIGFISYSGITNYNPSLQGRVTISRDNSKNTLYLQMNSLRAEDTAVYYCARSLARTTAMDYWGEGTLVTVSSASTKGPSVFPLAPSSKSTSGGTAALGCLVKDYFPEPVTVSWNSGALTSGVHTFPAVLQSSGLYSLSSVVTVPSSSLGTQTYICNVNHKPSNTKVDKKVEPKSCDKTHTCPPCPAPEYLGGDSVFLFPPKPKDTLMISRTPEVTCVVVDVSHEDPEVKFNWYVDGVEVHNAKTKPREEQYNSTYRVVSVLTVLHQDWLNGKEYKCKVSNAALPAPIEKTISKAKGQPREPQVYTLPPSRDELTKNQVSLTCLVKGFYPSDIAVEWESNGQPENNYKTTPPVLDSDGSFFLYSKLTVDKSRWQQGNVFSCSVMHEALHNHYTQESLSLSP light: DIQMTQSPSSLSASVGDRVTITCRASQDISSYLNWYQQKPGKAPKLLIYYTSRLHSGVPSRFSGSGSGTDFTFTISSLQPEDIATYYCQQGNTLPYTFGQGTKVEIK	–	–	4.71	–
IL6R-BP147/IL6R-L (antibody, human IgG1, name in EU numbering, Alterations introduced into IL6R-B3 (EU numbering)) heavy: QVQLQESGPGLVKPSETLSLTCAVSGHSISHDHAWSWVRQPPGEGLEWIGFISYSGITNYNPSLQGRVTISRDNSKNTLYLQMNSLRAEDTAVYYCARSLARTTAMDYWGEGTLVTVSSASTKGPSVFPLAPSSKSTSGGTAALGCLVKDYFPEPVTVSWNSGALTSGVHTFPAVLQSSGLYSLSSVVTVPSSSLGTQTYICNVNHKPSNTKVDKKVEPKSCDKTHTCPPCPAPEYLGDDSVFLFPPKPKDTLMISRTPEVTCVVVDVSHEDPEVKFNWYVDGVEVHNAKTKPREEQYNSTYRVVSVLTVLHQDWLNGKEYKCKVSNAALPKPIEKTISKAKGQPREPQVYTLPPSRDELTKNQVSLTCLVKGFYPSDIAVEWESNGQPENNYKTTPPVLDSDGSFFLYSKLTVDKSRWQQGNVFSCSVMHEALHNHYTQESLSLSP light: DIQMTQSPSSLSASVGDRVTITCRASQDISSYLNWYQQKPGKAPKLLIYYTSRLHSGVPSRFSGSGSGTDFTFTISSLQPEDIATYYCQQGNTLPYTFGQGTKVEIK	–	–	77.7	–
